# Measurements from the supplement of paper PMC10126150.
# ± gives the standard deviation of the averaged measurements.
# System: ATP
# Assay: switch fluorescence ratio, 500 uM ATP over buffer (Cy3 cluster intensity, sum of 5 cycles each) (fold (ratio)); higher = stronger signal-on switching upon ATP binding; sequences stand for … in TCGTCGGCAGCGTCAGATGTGTATAAGAGACAGTTTTTTTTTTTTTTTTTTTTTTTTT…TC
# Settings: aptamer strand: ATP DNA aptamer (quencher-CACCTGGGGGAGTATTGCGGAGGAAGG + anchor), 100 nM annealed; ATP concentration: 500 uM
# Outline: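 Between each of five buffer/ATP cycles, the flow-cell was stripped with NaOH and re-annealed. Each cycle imaged Cy3-labelled switching-strand clusters, annealed to 100 nM quencher-labelled ATP aptamer on a modified Illumina MiSeq flow-cell, first in selection buffer and then after 15 min with 500 uM ATP at 22 °C. The fluorescence ratio is summed target-cycle over summed buffer-cycle Cy3 intensity per cluster, averaged per switch-domain sequence, with clusters outside 100-1000 RFU excluded.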
# 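Further: ATP exposure 15 min at 22 °C before imaging.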
row,Sequence,switch fluorescence ratio
1,TAGTTGAACA,1.01 ± 0.021
2,TAGTTGATGT,1.026 ± 0.008
3,TAGTTGGATT,0.972 ± 0.038
4,TAGTTGGGGC,1.01 ± 0.026
5,TAGTTGGGTT,0.986 ± 0.041
6,TAGTTGTAAA,1.03 ± 0.075
7,TAGTTGTTCC,1.07 ± 0.07
8,TAGTTGTTCT,0.962 ± 0.022
9,TAGTTTCTGG,0.965 ± 0.02
10,TAGTTTGGAA,0.984 ± 0.04
11,TAGTTTGGAT,1.01 ± 0.026
12,TAGTTTGGCA,0.985 ± 0.037
13,TAGTTTGGTT,0.9887 ± 0.0052
14,TAGTTTGTTT,1.02 ± 0.074
15,TATAAAACAC,1.02 ± 0.013
16,TATAAAACGG,1.14 ± 0.045
17,TATAAAAGTG,0.958 ± 0.053
18,TATAAATTGC,1.01 ± 0.016
19,TATAACGCGC,1.11 ± 0.061
20,TATAAGACAT,1.03 ± 0.038
21,TATAAGACTT,1.01 ± 0.035
22,TATAAGAGTG,1.03 ± 0.032
23,TATAAGGGAG,0.996 ± 0.023

row,Sequence,switch fluorescence ratio
1,TATAAGGGTT,1.01 ± 0.017
2,TATAATCTGT,1.01 ± 0.017
3,TATACCGCGA,2.49 ± 0.29
4,TATACCGGCG,1.05 ± 0.076
5,TATACCTAGG,1.003 ± 0.0065
6,TATACGTGTG,1.031 ± 0.0043
7,TATACTATGT,1.05 ± 0.024
8,TATACTTAAT,1.059 ± 0.0053
9,TATAGAGGGG,1.07 ± 0.15
10,TATAGATAAG,1.01 ± 0.015
11,TATAGATTGG,0.985 ± 0.019
12,TATAGCATTA,1.04 ± 0.014
13,TATAGCCGAA,1 ± 0.083
14,TATAGGAGGG,0.991 ± 0.039
15,TATAGGCGCG,1.03 ± 0.072
16,TATAGGGACA,1.2 ± 0.03
17,TATAGGGATT,0.984 ± 0.015
18,TATAGGGGGT,1.01 ± 0.036
19,TATAGGGGTG,1.03 ± 0.039
20,TATAGGTAAT,1.03 ± 0.011
21,TATAGGTGCA,0.997 ± 0.024
22,TATAGTATGT,1.01 ± 0.015
23,TATATAAATT,0.985 ± 0.021

row,Sequence,switch fluorescence ratio
1,TATATATAAC,1.006 ± 0.0081
2,TATATATAGG,1 ± 0.025
3,TATATATTAA,1.001 ± 0.0023
4,TATATATTGC,1.02 ± 0.03
5,TATATCAATC,0.991 ± 0.013
6,TATATCGTC,1.19 ± 0.31
7,TATATCTTCA,1.017 ± 0.0055
8,TATATGCGCG,0.994 ± 0.041
9,TATATGGGGC,1.03 ± 0.03
10,TATATGGTGG,1.02 ± 0.056
11,TATATGGTTG,0.9383 ± 0.0022
12,TATATGTCCA,1 ± 0.027
13,TATATTACCC,1.05 ± 0.065
14,TATATTAGGT,1.13 ± 0.1
15,TATATTCTTA,1 ± 0.065
16,TATATTGAGG,0.991 ± 0.042
17,TATATTGGGA,0.992 ± 0.022
18,TATATTGTAA,1.01 ± 0.013
19,TATATTTAAG,1.01 ± 0.03
20,TATATTTCGG,0.995 ± 0.044
21,TATCAGTCGT,0.988 ± 0.032
22,TATCATATCA,0.956 ± 0.017
23,TATCATGTGA,1.01 ± 0.011

row,Sequence,switch fluorescence ratio
1,TATCATTGGG,0.968 ± 0.029
2,TATCATTTTG,0.986 ± 0.057
3,TATCCCTGTT,0.976 ± 0.013
4,TATCCGGGGT,1.03 ± 0.025
5,TATCCTTTCA,1.04 ± 0.026
6,TATCCTTTGA,1.002 ± 0.0014
7,TATCGAATCC,0.99 ± 0.025
8,TATCGAGCAT,1.028 ± 0.0096
9,TATCGAGTTT,1 ± 0.038
10,TATCGGAAGG,0.9901 ± 0.0013
11,TATCGGCGTG,0.98796 ± 0.00031
12,TATCGGGGCT,0.981 ± 0.064
13,TATCGGGGGT,1.02 ± 0.039
14,TATCGGTCGG,0.98 ± 0.021
15,TATCGGTGTT,0.991 ± 0.027
16,TATCGTACAG,1.06 ± 0.011
17,TATCGTAGGA,0.977 ± 0.032
18,TATCGTATTG,0.979 ± 0.011
19,TATCGTGATG,0.992 ± 0.039
20,TATCTAAAAC,1.001 ± 0.0032
21,TATCTAGAGG,1.01 ± 0.022
22,TATCTCAGAA,0.99 ± 0.014
23,TATCTCTGGG,1.02 ± 0.014

row,Sequence,switch fluorescence ratio
1,TATCTGGGGC,1.04 ± 0.025
2,TATGAAAATC,0.983 ± 0.03
3,TATGAAGAAG,0.994 ± 0.054
4,TATGAAGTCG,0.9937 ± 0.0098
5,TATGAATAGC,1.02 ± 0.05
6,TATGAATTTG,1 ± 0.028
7,TATGACACTT,1.03 ± 0.047
8,TATGACAGGG,1.05 ± 0.024
9,TATGACATGG,0.959 ± 0.011
10,TATGAGAGGC,1.04 ± 0.035
11,TATGAGCTGG,0.97 ± 0.015
12,TATGAGGAGT,0.982 ± 0.015
13,TATGAGTAAT,0.9866 ± 0.0093
14,TATGATATCC,0.9783 ± 0.0089
15,TATGATGGGT,1.015 ± 0.01
16,TATGATGTTA,0.9931 ± 0.0093
17,TATGCATATT,1.04 ± 0.032
18,TATGCCTGTG,1.01 ± 0.036
19,TATGCTGGTT,1.05 ± 0.061
20,TATGCTTTAA,1.01 ± 0.024
21,TATGGAAACG,0.981 ± 0.011
22,TATGGAAAGG,0.994 ± 0.016
23,TATGGAATTT,0.985 ± 0.009

row,Sequence,switch fluorescence ratio
1,TATGGAGACC,0.9917 ± 0.0049
2,TATGGAGAGC,1.02 ± 0.038
3,TATGGAGGGT,1.01 ± 0.022
4,TATGGAGTTG,0.992 ± 0.032
5,TATGGATCTA,0.986 ± 0.048
6,TATGGCATAC,1.51 ± 0.02
7,TATGGCGGAG,0.9975 ± 0.0061
8,TATGGCTTTG,0.9945 ± 0.0061
9,TATGGGAAGA,0.985 ± 0.027
10,TATGGGCCTA,0.971 ± 0.053
11,TATGGGCTAC,1.56 ± 0.74
12,TATGGGCTGG,0.979 ± 0.049
13,TATGGGGAAT,1.03 ± 0.098
14,TATGGGGCTT,0.992 ± 0.017
15,TATGGGGTAT,0.9863 ± 0.0055
16,TATGGGGTGT,1.01 ± 0.033
17,TATGGGTACG,1.01 ± 0.016
18,TATGGGTCGG,1 ± 0.043
19,TATGGGTGGG,0.964 ± 0.018
20,TATGGTCAG,1.02 ± 0.042
21,TATGGTGAGG,0.976 ± 0.013
22,TATGGTGGGT,0.995 ± 0.027
23,TATGGTGTTC,0.981 ± 0.015

row,Sequence,switch fluorescence ratio
1,TATGGTTTTG,1.01 ± 0.017
2,TATGTACATG,1 ± 0.026
3,TATGTAGGGC,1.02 ± 0.05
4,TATGTCGGCG,0.991 ± 0.055
5,TATGTCGGTT,0.985 ± 0.033
6,TATGTCTCCG,1.03 ± 0.017
7,TATGTCTCGC,0.995 ± 0.044
8,TATGTGAGCT,1.01 ± 0.024
9,TATGTGAGGG,0.988 ± 0.033
10,TATGTGAGTA,1.01 ± 0.013
11,TATGTGATGG,0.9874 ± 0.0053
12,TATGTGGACT,1 ± 0.057
13,TATGTGGGTA,0.983 ± 0.026
14,TATGTGTGAC,1.03 ± 0.021
15,TATGTTACCA,0.977 ± 0.046
16,TATGTTATTC,1.01 ± 0.045
17,TATGTTCACG,0.9924 ± 0.0042
18,TATGTTGCGT,0.9975 ± 0.0078
19,TATGTTGTCC,0.977 ± 0.018
